Results: patent US20250339532A1 (FATE THERAPEUTICS, published 2025)

Target: CD38 (UniProt P28907 1-300, limits assumed)
Test: cell-based or functional assay

fold reduction of CD38+ T cell counts in co-cultures with daratumumab against the control condition: ~15 fold
fold reduction of CD38+ pbNK cell counts in co-cultures with daratumumab against the control condition: ~21 fold
B1: daratumumab (antibody, V domains shown)
VH: EVQLLESGGGLVQPGGSLRLSCAVSGFTFNSFAMSWVRQAPGKGLEWVSAISGSGGGTYYADSVKGRFTISRDNSKNTLYLQMNSLRAEDTAVYFCAKDKILWFGEPVFDYWGQGTLVTVSS
VL: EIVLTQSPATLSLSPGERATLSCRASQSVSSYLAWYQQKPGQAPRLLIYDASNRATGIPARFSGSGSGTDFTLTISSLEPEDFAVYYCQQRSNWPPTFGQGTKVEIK
